Laboratory results published in the Human Domainome abundance scans (Beltran et al. 2025).
± gives the uncertainty stated by the source.

B1: Friend leukemia integration 1 transcription factor, residues 116 to 197; numbered along this chain, Q01543 (parent)
chain: NMTTNERRVIVPADPTLWTQEHVRQWLEWAIKEYSLMEIDTSFFQNMDGKELCKMNKEDFLRATTLYNTEVLLSHLSYLRES

Variants of: B1
Assay: abundance fitness (aPCA) (normalised: wild type 0, dead -1); higher = more abundant; growth selection in yeast, the domain comes from the species named
Settings: Homo sapiens

| Variant | abundance fitness |
| --- | --- |
| NMTTNERRVIVPADPTLWTQEHVRQWLEWAIKEYSLMEIDTSFFQNMDGKELCKMNKEDFLRATTLYWTEVLLSHLSYLRES | -0.911 ± 0.16 |
| NMTTNERRVIVPADPTLWTQEHVRQWLEWAIKEYSLMEIDTSFFQNMDGKELCKMNKEDFLRATTLYYTEVLLSHLSYLRES | -0.797 ± 0.29 |
| NMTTNERRVIVPADPTLWTQEHVRQWLEWAIKEYSLMEIDTSFFQNMDGKELCKMNKEDFLRATTLYNAEVLLSHLSYLRES | 0.084 ± 0.11 |
| NMTTNERRVIVPADPTLWTQEHVRQWLEWAIKEYSLMEIDTSFFQNMDGKELCKMNKEDFLRATTLYNCEVLLSHLSYLRES | -0.214 ± 0.12 |
| NMTTNERRVIVPADPTLWTQEHVRQWLEWAIKEYSLMEIDTSFFQNMDGKELCKMNKEDFLRATTLYNEEVLLSHLSYLRES | -0.673 ± 0.19 |
| NMTTNERRVIVPADPTLWTQEHVRQWLEWAIKEYSLMEIDTSFFQNMDGKELCKMNKEDFLRATTLYNFEVLLSHLSYLRES | -0.799 ± 0.29 |
| NMTTNERRVIVPADPTLWTQEHVRQWLEWAIKEYSLMEIDTSFFQNMDGKELCKMNKEDFLRATTLYNGEVLLSHLSYLRES | -0.184 ± 0.079 |
| NMTTNERRVIVPADPTLWTQEHVRQWLEWAIKEYSLMEIDTSFFQNMDGKELCKMNKEDFLRATTLYNKEVLLSHLSYLRES | -0.816 ± 0.32 |
| NMTTNERRVIVPADPTLWTQEHVRQWLEWAIKEYSLMEIDTSFFQNMDGKELCKMNKEDFLRATTLYNLEVLLSHLSYLRES | -0.561 ± 0.094 |
| NMTTNERRVIVPADPTLWTQEHVRQWLEWAIKEYSLMEIDTSFFQNMDGKELCKMNKEDFLRATTLYNMEVLLSHLSYLRES | -0.444 ± 0.086 |
| NMTTNERRVIVPADPTLWTQEHVRQWLEWAIKEYSLMEIDTSFFQNMDGKELCKMNKEDFLRATTLYNQEVLLSHLSYLRES | -0.744 ± 0.18 |
| NMTTNERRVIVPADPTLWTQEHVRQWLEWAIKEYSLMEIDTSFFQNMDGKELCKMNKEDFLRATTLYNSEVLLSHLSYLRES | -0.028 ± 0.06 |
| NMTTNERRVIVPADPTLWTQEHVRQWLEWAIKEYSLMEIDTSFFQNMDGKELCKMNKEDFLRATTLYNYEVLLSHLSYLRES | -0.295 ± 0.2 |
| NMTTNERRVIVPADPTLWTQEHVRQWLEWAIKEYSLMEIDTSFFQNMDGKELCKMNKEDFLRATTLYNTAVLLSHLSYLRES | -0.598 ± 0.12 |
| NMTTNERRVIVPADPTLWTQEHVRQWLEWAIKEYSLMEIDTSFFQNMDGKELCKMNKEDFLRATTLYNTCVLLSHLSYLRES | -0.448 ± 0.14 |
| NMTTNERRVIVPADPTLWTQEHVRQWLEWAIKEYSLMEIDTSFFQNMDGKELCKMNKEDFLRATTLYNTDVLLSHLSYLRES | 0.092 ± 0.12 |
| NMTTNERRVIVPADPTLWTQEHVRQWLEWAIKEYSLMEIDTSFFQNMDGKELCKMNKEDFLRATTLYNTHVLLSHLSYLRES | -0.001 ± 0.17 |
| NMTTNERRVIVPADPTLWTQEHVRQWLEWAIKEYSLMEIDTSFFQNMDGKELCKMNKEDFLRATTLYNTIVLLSHLSYLRES | -0.726 ± 0.46 |
| NMTTNERRVIVPADPTLWTQEHVRQWLEWAIKEYSLMEIDTSFFQNMDGKELCKMNKEDFLRATTLYNTKVLLSHLSYLRES | -0.167 ± 0.12 |
| NMTTNERRVIVPADPTLWTQEHVRQWLEWAIKEYSLMEIDTSFFQNMDGKELCKMNKEDFLRATTLYNTLVLLSHLSYLRES | -0.507 ± 0.079 |
| NMTTNERRVIVPADPTLWTQEHVRQWLEWAIKEYSLMEIDTSFFQNMDGKELCKMNKEDFLRATTLYNTMVLLSHLSYLRES | -0.239 ± 0.11 |
| NMTTNERRVIVPADPTLWTQEHVRQWLEWAIKEYSLMEIDTSFFQNMDGKELCKMNKEDFLRATTLYNTNVLLSHLSYLRES | -0.124 ± 0.28 |
| NMTTNERRVIVPADPTLWTQEHVRQWLEWAIKEYSLMEIDTSFFQNMDGKELCKMNKEDFLRATTLYNTPVLLSHLSYLRES | -0.859 ± 0.28 |

| Variant | abundance fitness |
| --- | --- |
| NMTTNERRVIVPADPTLWTQEHVRQWLEWAIKEYSLMEIDTSFFQNMDGKELCKMNKEDFLRATTLYNTQVLLSHLSYLRES | -0.078 ± 0.11 |
| NMTTNERRVIVPADPTLWTQEHVRQWLEWAIKEYSLMEIDTSFFQNMDGKELCKMNKEDFLRATTLYNTRVLLSHLSYLRES | -0.335 ± 0.066 |
| NMTTNERRVIVPADPTLWTQEHVRQWLEWAIKEYSLMEIDTSFFQNMDGKELCKMNKEDFLRATTLYNTSVLLSHLSYLRES | -0.107 ± 0.071 |
| NMTTNERRVIVPADPTLWTQEHVRQWLEWAIKEYSLMEIDTSFFQNMDGKELCKMNKEDFLRATTLYNTTVLLSHLSYLRES | -0.213 ± 0.081 |
| NMTTNERRVIVPADPTLWTQEHVRQWLEWAIKEYSLMEIDTSFFQNMDGKELCKMNKEDFLRATTLYNTVVLLSHLSYLRES | -0.363 ± 0.089 |
| NMTTNERRVIVPADPTLWTQEHVRQWLEWAIKEYSLMEIDTSFFQNMDGKELCKMNKEDFLRATTLYNTWVLLSHLSYLRES | -0.944 ± 0.21 |
| NMTTNERRVIVPADPTLWTQEHVRQWLEWAIKEYSLMEIDTSFFQNMDGKELCKMNKEDFLRATTLYNTEALLSHLSYLRES | -0.006 ± 0.086 |
| NMTTNERRVIVPADPTLWTQEHVRQWLEWAIKEYSLMEIDTSFFQNMDGKELCKMNKEDFLRATTLYNTECLLSHLSYLRES | 0.094 ± 0.16 |
| NMTTNERRVIVPADPTLWTQEHVRQWLEWAIKEYSLMEIDTSFFQNMDGKELCKMNKEDFLRATTLYNTEELLSHLSYLRES | -0.368 ± 0.18 |
| NMTTNERRVIVPADPTLWTQEHVRQWLEWAIKEYSLMEIDTSFFQNMDGKELCKMNKEDFLRATTLYNTEFLLSHLSYLRES | -0.215 ± 0.13 |
| NMTTNERRVIVPADPTLWTQEHVRQWLEWAIKEYSLMEIDTSFFQNMDGKELCKMNKEDFLRATTLYNTEGLLSHLSYLRES | -0.677 ± 0.13 |
| NMTTNERRVIVPADPTLWTQEHVRQWLEWAIKEYSLMEIDTSFFQNMDGKELCKMNKEDFLRATTLYNTEILLSHLSYLRES | 0.263 ± 0.17 |
| NMTTNERRVIVPADPTLWTQEHVRQWLEWAIKEYSLMEIDTSFFQNMDGKELCKMNKEDFLRATTLYNTEKLLSHLSYLRES | 0.051 ± 0.14 |
| NMTTNERRVIVPADPTLWTQEHVRQWLEWAIKEYSLMEIDTSFFQNMDGKELCKMNKEDFLRATTLYNTELLLSHLSYLRES | -0.093 ± 0.052 |
| NMTTNERRVIVPADPTLWTQEHVRQWLEWAIKEYSLMEIDTSFFQNMDGKELCKMNKEDFLRATTLYNTEMLLSHLSYLRES | -0.065 ± 0.09 |
| NMTTNERRVIVPADPTLWTQEHVRQWLEWAIKEYSLMEIDTSFFQNMDGKELCKMNKEDFLRATTLYNTENLLSHLSYLRES | -0.391 ± 0.23 |
| NMTTNERRVIVPADPTLWTQEHVRQWLEWAIKEYSLMEIDTSFFQNMDGKELCKMNKEDFLRATTLYNTEPLLSHLSYLRES | -0.401 ± 0.12 |
| NMTTNERRVIVPADPTLWTQEHVRQWLEWAIKEYSLMEIDTSFFQNMDGKELCKMNKEDFLRATTLYNTEQLLSHLSYLRES | -0.035 ± 0.07 |
| NMTTNERRVIVPADPTLWTQEHVRQWLEWAIKEYSLMEIDTSFFQNMDGKELCKMNKEDFLRATTLYNTERLLSHLSYLRES | 0.02 ± 0.062 |
| NMTTNERRVIVPADPTLWTQEHVRQWLEWAIKEYSLMEIDTSFFQNMDGKELCKMNKEDFLRATTLYNTESLLSHLSYLRES | -0.147 ± 0.066 |
| NMTTNERRVIVPADPTLWTQEHVRQWLEWAIKEYSLMEIDTSFFQNMDGKELCKMNKEDFLRATTLYNTETLLSHLSYLRES | -0.145 ± 0.12 |
| NMTTNERRVIVPADPTLWTQEHVRQWLEWAIKEYSLMEIDTSFFQNMDGKELCKMNKEDFLRATTLYNTEWLLSHLSYLRES | -0.047 ± 0.079 |
| NMTTNERRVIVPADPTLWTQEHVRQWLEWAIKEYSLMEIDTSFFQNMDGKELCKMNKEDFLRATTLYNTEYLLSHLSYLRES | -0.239 ± 0.29 |

| Variant | abundance fitness |
| --- | --- |
| NMTTNERRVIVPADPTLWTQEHVRQWLEWAIKEYSLMEIDTSFFQNMDGKELCKMNKEDFLRATTLYNTEVALSHLSYLRES | -0.463 ± 0.13 |
| NMTTNERRVIVPADPTLWTQEHVRQWLEWAIKEYSLMEIDTSFFQNMDGKELCKMNKEDFLRATTLYNTEVCLSHLSYLRES | -0.372 ± 0.16 |
| NMTTNERRVIVPADPTLWTQEHVRQWLEWAIKEYSLMEIDTSFFQNMDGKELCKMNKEDFLRATTLYNTEVFLSHLSYLRES | -0.231 ± 0.12 |
| NMTTNERRVIVPADPTLWTQEHVRQWLEWAIKEYSLMEIDTSFFQNMDGKELCKMNKEDFLRATTLYNTEVGLSHLSYLRES | -1.01 ± 0.22 |
| NMTTNERRVIVPADPTLWTQEHVRQWLEWAIKEYSLMEIDTSFFQNMDGKELCKMNKEDFLRATTLYNTEVILSHLSYLRES | 0.063 ± 0.33 |
| NMTTNERRVIVPADPTLWTQEHVRQWLEWAIKEYSLMEIDTSFFQNMDGKELCKMNKEDFLRATTLYNTEVKLSHLSYLRES | -1 ± 0.22 |
| NMTTNERRVIVPADPTLWTQEHVRQWLEWAIKEYSLMEIDTSFFQNMDGKELCKMNKEDFLRATTLYNTEVMLSHLSYLRES | -0.099 ± 0.085 |
| NMTTNERRVIVPADPTLWTQEHVRQWLEWAIKEYSLMEIDTSFFQNMDGKELCKMNKEDFLRATTLYNTEVPLSHLSYLRES | -0.78 ± 0.22 |
| NMTTNERRVIVPADPTLWTQEHVRQWLEWAIKEYSLMEIDTSFFQNMDGKELCKMNKEDFLRATTLYNTEVQLSHLSYLRES | -0.949 ± 0.2 |
| NMTTNERRVIVPADPTLWTQEHVRQWLEWAIKEYSLMEIDTSFFQNMDGKELCKMNKEDFLRATTLYNTEVRLSHLSYLRES | -1.12 ± 0.29 |
| NMTTNERRVIVPADPTLWTQEHVRQWLEWAIKEYSLMEIDTSFFQNMDGKELCKMNKEDFLRATTLYNTEVTLSHLSYLRES | -0.814 ± 0.16 |
| NMTTNERRVIVPADPTLWTQEHVRQWLEWAIKEYSLMEIDTSFFQNMDGKELCKMNKEDFLRATTLYNTEVVLSHLSYLRES | -0.6 ± 0.097 |
| NMTTNERRVIVPADPTLWTQEHVRQWLEWAIKEYSLMEIDTSFFQNMDGKELCKMNKEDFLRATTLYNTEVWLSHLSYLRES | -1.1 ± 0.27 |
| NMTTNERRVIVPADPTLWTQEHVRQWLEWAIKEYSLMEIDTSFFQNMDGKELCKMNKEDFLRATTLYNTEVLASHLSYLRES | -0.133 ± 0.11 |
| NMTTNERRVIVPADPTLWTQEHVRQWLEWAIKEYSLMEIDTSFFQNMDGKELCKMNKEDFLRATTLYNTEVLCSHLSYLRES | -0.057 ± 0.11 |
| NMTTNERRVIVPADPTLWTQEHVRQWLEWAIKEYSLMEIDTSFFQNMDGKELCKMNKEDFLRATTLYNTEVLESHLSYLRES | -0.343 ± 0.11 |
| NMTTNERRVIVPADPTLWTQEHVRQWLEWAIKEYSLMEIDTSFFQNMDGKELCKMNKEDFLRATTLYNTEVLFSHLSYLRES | -0.1 ± 0.1 |
| NMTTNERRVIVPADPTLWTQEHVRQWLEWAIKEYSLMEIDTSFFQNMDGKELCKMNKEDFLRATTLYNTEVLGSHLSYLRES | -0.27 ± 0.084 |
| NMTTNERRVIVPADPTLWTQEHVRQWLEWAIKEYSLMEIDTSFFQNMDGKELCKMNKEDFLRATTLYNTEVLHSHLSYLRES | -0.173 ± 0.19 |
| NMTTNERRVIVPADPTLWTQEHVRQWLEWAIKEYSLMEIDTSFFQNMDGKELCKMNKEDFLRATTLYNTEVLISHLSYLRES | -0.21 ± 0.14 |
| NMTTNERRVIVPADPTLWTQEHVRQWLEWAIKEYSLMEIDTSFFQNMDGKELCKMNKEDFLRATTLYNTEVLKSHLSYLRES | -0.199 ± 0.083 |
